In publication PMC6366944 (Cell, 2018):

Experiments:
[1] = biological target: T1, EBOV VP30 residues 89-288 (in vitro pull-down) (Zaire ebolavirus, UniProt Q05323 89-288); assay: pull-down
T1 sequence: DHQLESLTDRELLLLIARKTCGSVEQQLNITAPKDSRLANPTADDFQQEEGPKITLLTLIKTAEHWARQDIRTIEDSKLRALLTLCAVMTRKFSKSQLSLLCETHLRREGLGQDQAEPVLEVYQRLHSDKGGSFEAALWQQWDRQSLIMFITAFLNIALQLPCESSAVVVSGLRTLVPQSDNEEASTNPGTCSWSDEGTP

[2] = biological target: T2, EBOV VP30 C-terminal domain, residues 130-272 (Zaire ebolavirus, UniProt Q05323 130-272); assay: fluorescence polarisation
T2 sequence: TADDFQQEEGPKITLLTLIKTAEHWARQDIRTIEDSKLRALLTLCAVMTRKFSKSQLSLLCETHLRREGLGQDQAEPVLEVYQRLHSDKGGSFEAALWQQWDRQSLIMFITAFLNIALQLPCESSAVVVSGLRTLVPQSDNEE

[3] = biological target: T2, EBOV VP30 C-terminal domain, residues …; assay: ITC

Binder | binding result [1] | Kd [2] [µM] | Kd [3] [µM] | stoichiometry N [3]
SLPATPVFVPVPPPPLYPPPPHTLP [MBP fusion of RBBP6 residues 549-573] | binds |  |  | 
RTPTVAPPAPVYRDHS [unlabeled NP peptide] |  | 89.2 ± 2.26 |  | 
SLPATPVFVPVPPPPLYPPPPHT [RBBP6 peptide, residues 549-571] |  | 18.1 ± 0.41 | 0.75 ± 0.095 | 1
